Results on one molecule are retold here after US20230034906A1 (TRINOMAB BIOTECH, published 2023).

For this assay, the target named is T1, homologous sequence of gB glycoprotein of 56 virus strains (gB_Con. Strain) (human cytomegalovirus (homologous …, UniProt P06473 25-699)).
T1 construct: C-terminal tags are part of the entry
T1 chain: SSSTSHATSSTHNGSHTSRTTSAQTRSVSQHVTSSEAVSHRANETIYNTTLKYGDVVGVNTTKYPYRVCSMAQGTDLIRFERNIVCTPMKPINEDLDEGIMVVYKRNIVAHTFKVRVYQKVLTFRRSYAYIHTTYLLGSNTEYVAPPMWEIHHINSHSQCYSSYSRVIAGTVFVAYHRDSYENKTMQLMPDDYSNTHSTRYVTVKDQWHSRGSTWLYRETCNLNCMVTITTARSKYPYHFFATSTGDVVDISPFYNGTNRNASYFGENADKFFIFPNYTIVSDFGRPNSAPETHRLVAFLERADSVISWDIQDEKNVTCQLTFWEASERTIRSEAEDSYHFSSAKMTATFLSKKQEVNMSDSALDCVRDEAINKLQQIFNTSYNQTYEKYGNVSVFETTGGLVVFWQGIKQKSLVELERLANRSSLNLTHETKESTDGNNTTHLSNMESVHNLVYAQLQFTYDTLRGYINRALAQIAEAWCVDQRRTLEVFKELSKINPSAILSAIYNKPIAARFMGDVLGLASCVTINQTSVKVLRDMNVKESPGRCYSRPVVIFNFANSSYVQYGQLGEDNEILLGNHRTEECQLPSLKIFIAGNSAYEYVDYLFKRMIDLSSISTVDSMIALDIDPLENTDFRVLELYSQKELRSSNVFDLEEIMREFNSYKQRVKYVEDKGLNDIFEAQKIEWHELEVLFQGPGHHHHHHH
Put plainly: ELISA, HEK293 culture supernatant on gB. On the technique in general: In an ELISA, binding on a coated surface is turned into a signal by an enzyme label.

B1: TRN1019 (antibody, V domains shown)
VH: QVQLVQSGAEVKKPGESLKISCKGSGYTFTNYWIGWVRQMPGAGLEWMAIIFPRDSYSAYSPSFQGRVTISVDKSISTAYLHWSSLEASDTAVYYCAIYNDLRSGNSWGQGTPLIVSS
VL: DIQMTQSPSSLSASVGDRVTITCRASQSITKYLNWYQQKPGRAPKLLIHTTSTLQSGVPSRFSGSGSGTDFTLTISSLQLEDFGTYYCQQSFSTLWTFGQGTKLDIKR
notes: Fully human antibody; kappa light chain
With B1, the binding result is reported as “binds”.
